According to the DeepSol protein solubility set:

Assay: soluble on expression in E. coli; label from the status in PepcDB or PDB records

Sequence | soluble on expression in E. coli
TWVVSPAEKAKYDEIFLKTDKDMDGFVSGLEVREIFLKTGLPSTLLAHIWSLCDTKDCGKLSKDQFALAFHLISQKLIKGIDPPHVLTPEMIPPS | soluble
GMASIKGEVDEIANYGNLKITKEEERVNITGDLEKFSSLEEGTIVTRFNMNDTSIQSLIGLSDGNKANNYFSLYVSGGKVGYELRRQEGNGDFNVHHSADVTFNRGINTLALKIEKGIGAKIFLNGSLVKTVSDPNIKFLNAINLNSGFIGKTDRANGYNEYLFRGNIDFMNIYDKPVSDNYLLRKTGETK | soluble
QLTRERLTATSRYKLSSSDTFRVIGNPEPREGKLRMQVQLTGGSSPSYILYIRHEGEYEPVARGDMLKLRKFYARSVEEWEQKAPAMGRYMAGKGLSGSLHAKTGDVEILSTAKGPFSLRQKALDLSDRLAATLYELSPSLLSDSRRAMLEAMCLGREGEAPDVRRKFVAAGVAH | not soluble
MHKDIKIVDASAIVKPTGTPYVVYFSSISNNTHRFIEKLEFEHTRIPVNLDEQIEVNQEYVLFCPTYSGGGEYTSGAVPKQVIHFLNNKHNRDLCRGVISSGNTNFGNTFAIAGPILSKKLNVPLLYQFELLGTKNDVEQVQTIITNFFGKAK | soluble
MQPKVTVAQAAELMGVSDRTIRKKIEEGEITAEPAQSAKGKGRPGYLIPVSSLPVDAQRKYWTTSEVAAASEIGEAEPDKPETTGIPYTLAELEHAVGKEKFQEMMAEAEYRLQIVEQAMNPPQGVERTIWINRLAKKYGKSTATIYRDIEKFQEWGILGLMRKSRLLTQGPQRTSIEPEVERFIRAKYLDRRKPKPAHIFRETVRFCATNGYKAPSRASVFRYISDMERYEPDLCCLAREGEEAYWKKFAEKATRKEPEFVNQVWMGDHHKLDMFISYKGKPVRPWLTVWFDVCSRVVVGWCLSVQANGRTIALALRHALLPKKIKRDDGTEDVLEIGGIPGMIYIDNGEDYKAQVRAGKKHEDWELSRETRGICASLDIKVQFATPYHPWAKAHVERFFGTFTDQFTRYQPGWCGPNNEDRPEGFDEKELHEKGLLLDLEELSERIDTWLYEYHTTEHRSLGMTPMQKHFSTPKIREGFADERALDICLMDVERAAVTPNGIERFGTRGRKRWYWHPELPAYAGQKVIIRYDPNRIGELLVFHPKTGKYLFTATNKELLDFNATKDDIQELQKRRASRRKAVKEMVRNAQQASLENIVAEREAAGSRMTSGKAGSTKGKVRAMIGTEQVVRQREEQANLAKTKRPTKTTSAFDDYILREGTEG | not soluble
MGSDKIHHHHHHTVQNAQLSQQHAPCVDNKWPKSRLLSLAGSQFEMTDADRNDMVMRLISCLADTDPELRDAVAFSGLSHWLRANDLTNETVKSLYTKLSGDVRKRKDDPNGVYLPFAILTLSEVARVDRVSPFFEPAERDALSKLAADTMAGIQDYRGFDETIGWRHQVAHSADLLLQLVLNPALSSDDIMELVTSIQHQLSPAGHFYVYGEPERLARPVLYAMLRDDIPDSFWHSQLARWSTPVHIEGWDKAFSSNAGLAERHNRRAFFSALLLGISGSKQPRLLALQPAIQAAMKKLP | not soluble
MGSDKIHHHHHHMTETLVQVQKLAMDFPGQKLFNNLSFDVDRRDFLSIIGENGVGKTTLIRALLNQVKPTSGSIKFRKGTKVGYVPQFRNIERDYPLSIRDFVALNLQNGKMPWLSKMERTQLDEILEETDLVDIQNTRIGRASGGQKQKAYLAQALVDNPDLLILDESTASLDTVRKYELFNLVQHFNQQHDLTVISVTHDFDLMQRYSNRYLMLKEDHYALGEVADIKNEEDLLDV | not soluble
MGSDKIHHHHHHMKFVQKIYYFLFKLVGFLPRRKELVMFESFSGKQYSCNPRAIFEYMEEHNPEYELLWSVNPKYVDLFEAHGVPYVKRFSVNWLFKMGLAKFWISNSRLPLELPKPKKTIYVQTWHGTPLKKLGVDIDEVHMPGQTTEQYKADFVKEAQKWDYLISPNAYSSTIFRRAFGFTGEMIESGYPRNDILFSADKELKIANIKMALNIPEDKKVILYAPTWRDNDFYEIGKYKFDLKIDIAKMQEKFGDEVVLLVRMHYLVAEHFDFTQYGDFVRDASKHEDIRDLYLVSDLLITDYSSVFFDYANLKRPMLFYTYDLAEYRDTLRGFYFDFEQNAPGPLVEMNDALMAEIEIMLENPPQIAESFLEQFCTWEDGHAAEKTVKKVFAEK | not soluble
MKTLTDTDHIHTLIAEGEHQQQDFKFEISDARKIAKTLSAFANTDGGRLLIGVKDNGRIAGVRSEEEKYMIEAAAQLYCIPEIDYTLQTYIVEGKQVLVATIEENPHKPVYAKDENGKPLAYLRIKDENILATPIHLRVWQQSGSPRGELIRYTEREQLLLDLLEQGTLLSLNRYCRQTGISRRAAEHLLAKFVRYDIVEPVFENHKFYFRMKNELEHHHHHH | soluble
MSLRSPLEPGAPDALLTVIVIVEHLDHKEEVIVQGREIVPSMDGHFDTIQELNSRFTESAPREKIEIGNRERPFKLHVVNVGDSRAMLVTGESYAALTRDHVPDDPGEWRRIEETGDQVVYSDGCARIRGLAMSRSFGDFVAKEVRTPSPITAKPDIRRFYATWNDVLLLYSDGLHVDGEDWRTNFGMAKQCISSVPKISDVAVCLLQQAYGGGSSDNITVLATKFRKFRRQTSAKLRIFGGLAKSFSEEGHHHHHH | not soluble
MRVFKTILLVVLMTLSQAMVAQTSPIPMLERAANQIISILKENKARLKSNPEIIYKAVEENLLPNVDVAGMSRSVLGRQAWSKATEAERVEFSKAFTRLVIRTYSSPLAQYSDETVQFLPLRGSLNSRFIRVNSVIVRSAGQNIPLSYSLVSKNGKWKIYDISVEGVSLLQSFRSQFAQALQHSSISQVIKEMQQKQIKKASLEHHHHHH | not soluble
MKLNLITVSLATLVAAGAFPAHAGPQAHVVCGYHHTLGDDAIMMFGKANQAMWHDFFGNTHTDAVSTYQTLRAQPDTTCDNKADSSAYWAPSMKLPDGEIVNPAYQKTYYQSTNVAQYPLHPFPAGLELLAGDHHGTGPSSAITFLCANGKGYTNKVGEICGLRKAGDAVQFNIGIAFPNCWDGVNLKPTHSHNNAIYADHGKCSADYPVKIPTVNMNIAWVLPQISSLDTSKVELSMDPVMHGETREERWGSLYTAHADFMNGWTEDGAQFMTDLCMNQGLDCGTTVPYAYSKAEENTWVSSEDDKPHASVDTLYVQDDWTNGGRTQHPETLTLVKFKIPPLPANMDASLFKYRIRLFGGKTEANGADQIFFYPTSSDWHVSTVSWNNKPAINYRSDAVLYLDHSHEYRMVDVDKAVRKALAEGKTEISWYIGGDRQGNHYDFTPADSKQSLVLMLTGFKKTPELLEHHHHHH | not soluble
MNPLEAVEHQGGLQLSTPPYEIAVDQKCYWRNQPIGLTLQGHNESIWFKGFVIQPFKWNNDQLGERFGQLVRLDDNGSWQQQCFRYQVSATHSHDEKKKHIKMWWKVDDEVDTVQFVATVVKHQTQFWVKSVRSRPLPPCRLNRDGFPNYQAPVPQIPPQVKQFKMETFKVFDSIVRRRPFNH | not soluble
MFGWRGRIGLIVPSSNTTMEMELHSFLPEGVSLHTSRMPLKSITDEELFKMNSYAIEAASLLADAGVEVIAFGCSSGSFIGGQDFEKELEMKIEEEVNIETFTTSTAVLEALDVLDAQSLLIVTPYSDEINQKEKEFLEGNGFEVLDIKGLNLTDNLEIGKLEPYVVYRLAKAMFAGDADAIFISCTNLRTFEIIEKLERDLGVPVITSNQATLWMALRQIDVRDQLPLGKLLREY | soluble
SQQVDKIKASYPLFLDQDYKDMLAKKRDGFEEKYPQDKIDEVFQWTTTKEYQELNFQREALTVNPAKACQPLGAVLCALGFEKTMPYVHGSQGCVAYFRSYFNRHFREPVSCVSDSMTEDAAVFGGQQNMKDGLQNCKATYKPDMIAVSTTCMAEVIGDDLNAFINNSKKEGFIPDEFPVPFAHTPSFVGSHVTGWDNMFEGIARYFTLKSMDDKVVGSNKKINIVPGFETYLGNFRVIKRMLSEMGVGYSLLSDPEEVLDTPADGQFRMYAGGTTQEEMKDAPNALNTVLLQPWHLEKTKKFVEGTWKHEVPKLNIPMGLDWTDEFLMKVSEISGQPIPASLTKERGRLVDMMTDSHTWLHGKRFALWGDPDFVMGLVKFLLELGCEPVHILCHNGNKRWKKAVDAILAASPYGKNATVYIGKDLWHLRSLVFTDKPDFMIGNSYGKFIQRDTLHKGKEFEVPLIRIGFPIFDRHHLHRSTTLGYEGAMQILTTLVNSILERLDEETRGMQATDYNHDLVR | soluble
